Experiment [1] addresses T1, human platelet factor 4 (PF4) (human, UniProt P02776 32-101).
T1 construct: Immobilized on a CM5 chip (Biacore) or on an ELISA plate; also called human PF4
T1 sequence (looked up): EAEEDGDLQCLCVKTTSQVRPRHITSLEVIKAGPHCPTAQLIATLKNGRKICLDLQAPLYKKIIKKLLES
The experiment can be described thus: SPR (Biacore), human PF4 immobilized on CM5 chip; antibody expressed in 293T cells. The protocol:
(§1) The binding affinity of the mammalian-cell-expressed RTO antibodies to human PF4 immobilized on the surface of a CM5 chip was evaluated using Biacore technology. The humanized antibody (huLight, huHeavy) binds to human PF4 at nM levels (Table 1), which is almost identical to the hybridoma-expressed and mammalian-cell-expressed parental antibody mRTO (mLight, mHeavy).
For orientation: SPR reads the build-up and loss of mass on a sensor chip optically.

Experiment [2] has as its target T1, human platelet factor 4 (PF4). The experiment can be described thus: SPR (Biacore), human PF4 immobilized on CM5 chip; antibody expressed in expi-CHO cells. How it is done: as §1

This note sets out measurements from patent publication US20200165333A1 (University of Pennsylvania, published 2020).

B1: humanized RTO antibody (huLight, huHeavy) (antibody, V domains shown)
VH: EVQLVESGGGLVQPGGSLRLSCAASGFAFSRYDMSWVRQAPGKGLEWVATITSGDNYTYYPDSVKGRFTISRDNSKNTLYLQMNSLRAEDTAVYYCTRQGLLYYAMDYWGQGTLVTVSS
VL: DIQMTQSPSSLSASVGDRVTISCSASQGINNYLSWYRQKPGKAPKLLIYYTSSLHSGVPSRFSGSGSGTDFTLTISSLQPEDFATYFCQQFSKLPYTFGGGTKVEIKR
notes: Tested as expressed in 293T and in expi-CHO cells; also called huRTO; HuRTO
By Kd is commonly meant the free concentration of one partner at which half of the binding sites on the other are occupied at equilibrium, for simple one-to-one binding. A higher Kd goes with weaker binding. In the case of B1, the figures for the Kd in experiment [1] and in experiment [2] were 0.75 nM and 2 nM, respectively.
